Laboratory results: PMC4164519

Molecular target: Neu4 with a C-terminal TAP (SBP/CBP) tag expressed in COS 7 cells (human) (UniProt Q8WWR8)
Assay: SEC; FPLC size exclusion chromatography of the purified enzyme; apparent mass

## Neu4 with a C-terminal TAP (SBP/CBP) tag expressed in COS 7 cells (from UniProt Q8WWR8 1-484) (enzyme)
  stoichiometry N: 2
